Test [1] deals with T1, His-tagged PD-L1 protein (human, UniProt Q9NZQ7 19-238).
T1 construct: also called His-tagged antigen PD-L1 protein; human PD-L1; not shown: His tag
Description: SPR, Biacore T200, multi-cycle; Fab captured on chip, His-tagged PD-L1 as analyte. How it is done: A combinatorial humanization phage display library was constructed using the heavy chain and light chain variable domain sequences of mAb PDL1#10. Briefly, frameworks of human antibodies with high sequence identities to PDL1#10 were selected and assembled using overlapping PCR. This humanized Fab phage display library was panned against PD-L1 Fc-fusion protein. Individual output phage clones were amplified in 96-deep-well plates and the amplified phage were assayed by ELISA against PD-L1 Fc-fusion protein. […] DNAs encoding the Fab fragments of the output phage were amplified and inserted in pFASEBA vector (Genscript) for the screening of the best humanized antibody clones. Individual Fab clones were expressed in 96-deep-well plates and the crude protein secreted by E. coli to the medium was assayed by ELISA against BSA and the antigen PD-L1 protein for the assessment of expression and binding activity, respectively. Thousands of humanized clones were screened and a number of clones with slower off-rate were identified, amongst which 14 clones with the highest binding affinities were subjected to multi-cycle affinity measurement. The binding affinity of the 14 purified Fabs to His-tagged PD-L1 protein were determined using a Surface Plasmon Resonance (SPR) biosensor, Biacore T200 (GE Healthcare) for multi-cycle affinity measurements. Fabs were immobilized on the sensor chip through capture method. His-tagged antigen PD-L1 protein was used as the analyte. The data of dissociation (kd) and association (ka) rate constants were processed using Biacore T200 evaluation software. The equilibrium dissociation constants (KD) were calculated from the ratio of kd over ka.

In test [2] the target is T1, His-tagged PD-L1 protein. Description: SPR, Biacore T200, full-length IgG, 1:1 interaction model. The text has this: Binding data for each antibody was processed and fitted to 1:1 interaction model using Biacore T200 evaluation software. All experimental data could be well fitted to the model.
On the technique in general: SPR reads the build-up and loss of mass on a sensor chip optically.

T1 sequence (Q9NZQ7 19-238 limits assumed): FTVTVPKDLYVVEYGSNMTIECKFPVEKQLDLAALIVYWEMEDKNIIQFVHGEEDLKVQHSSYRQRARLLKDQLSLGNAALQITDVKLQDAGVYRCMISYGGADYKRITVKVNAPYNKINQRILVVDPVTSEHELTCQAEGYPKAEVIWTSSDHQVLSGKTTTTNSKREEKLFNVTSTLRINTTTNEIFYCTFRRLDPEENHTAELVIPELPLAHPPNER

B1: AS02013 (humanized Fab) (Fab, V domains shown)
VH: EVQLVQSGAEVKKPGESLKISCKGSGYSFTSYSINWVRQAPGKGLEWMGYFYVGNGYTDYNEKFKGRVTMTRNTSISTAYMELSSLRSEDTAVYYCARGGLPYYFDYWGQGTLVTVSS
VL: DIQLTQSPSSLSASVGDRVTITCKTSQDVNTAVAWYQQKPGQAPRLLIYWASTRHTGVPSRFSGSGSGTDFTLTISSLQPEDFATYYCQQHYNTPLTFGGGTKLEIK
notes: Purified humanized Fab
B1: in the test with His-tagged PD-L1 protein [1], binding was put at a Kd of 0.38 nM, the koff stood at 0.0002 s⁻¹ and the kon came out at 500000 M⁻¹ s⁻¹.

B2: AS01825 (humanized Fab) (Fab, V domains shown)
VH: QMQLVQSGAEVKKTGSSVKVSCKASGYTFTSYSINWVRQMPGKGLEWMGYFYVGNGYTDYNEKFKGRVTITADESTSTAYMELSSLRSEDTAVYYCARGGLPYYFDYWGQGTLVTVSS
VL: DIQLTQSPSFLSASVGDRVTITCKTSQDVNTAVAWYQQKPGKAPKLLIYWASTRHTGVPSRFSGSGSGTDFTLTISSLQPEDVATYYCQQHYNTPLTFGGGTKLEIK
notes: Purified humanized Fab
In the test with His-tagged PD-L1 protein [1], B2 gave a Kd of 1.1 nM, a koff of 0.00039 s⁻¹ and a kon of 360000 M⁻¹ s⁻¹.

B3: AS01790 (humanized full-length IgG) (antibody, V domains shown)
VH: EVQLVQSGAEVKKPGESLKISCKGSGYSFTSYSINWVRQMPGKGLEWMGYFYVGNGYTDYNEKFKGRVTMTRNTSISTAYMELSSLRSEDTAVYYCARGGLPYYFDYWGQGTLVTVSS
VL: DIQMTQSPSTLSASVGDRVTITCKTSQDVNTAVAWYQQKPGKAPKLLIYWASTRHTGVPSRFSGSGSGTEFTLTISSLQPEDFATYYCQQHYNTPLTFGGGTKLEIKR
notes: Full-length IgG expressed in HEK293 cells, protein A purified
In the test with His-tagged PD-L1 protein [2], B3 showed a Kd of 0.769 nM, a koff of 0.000253 s⁻¹ and a kon of 329000 M⁻¹ s⁻¹.

B4: AS01789 (humanized Fab) (Fab, V domains shown)
VH: EVQLVQSGAEVKKPGESLKISCKGSGYSFTSYSINWVRQAPGQALEWMGYFYVGNGYTDYNEKFKGRVTITRDTSASTAYMELSSLRSEDTAVYYCARGDLPFYFDYWGDGILVTVAS
VL: DIVMTQSPDSLAVSLGERATINCKTSQDVNTAVAWYQQKPGQPPKLLIYWASTRHTGVPDRFSGSGSGTDFTLKISRVEAEDVGVYYCQQHYNTPLTFGGGTKLEIK
notes: Purified humanized Fab
In the test with His-tagged PD-L1 protein [1], B4 came in with a Kd of 1.1 nM, a koff of 0.00036 s⁻¹ and a kon of 330000 M⁻¹ s⁻¹.

B5: AS02002 (humanized Fab) (Fab, V domains shown)
VH: QMQLVQSGAEVKKTGSSVKVSCKASGYTFTSYSINWVRQARGQRLEWIGYFYVGNGYTDYNEKFKGRVTITADESTSTAYMELSSLRSEDTAVYYCARGGLPYYFDYWGQGTLVTVSS
VL: DIQMTQSPSSLSASVGDRVTITCKTSQDVNTAVAWYQQKPDQSPKLLIKWASTRHTGIPARFSGSGSGTEFTLTISSLQSEDFAVYYCQQHYNTPLTFGGGTKLEIK
notes: Purified humanized Fab
In the test with His-tagged PD-L1 protein [1], B5 gave a Kd of 1.5 nM, a koff of 0.00042 s⁻¹ and a kon of 310000 M⁻¹ s⁻¹.

B6: AS01814 (humanized Fab) (Fab, V domains shown)
VH: QVQLVQSGSELKKPGASVKVSCKASGYTFTSYSINWVRQAPGKGLEWVAYFYVGNGYTDYNEKFKGRVTITADESTSTAYMELSSLRSEDTAVYYCARGGLPYYFDYWGQGTLVTVSS
VL: DIQMTQSPSTLSASVGDRVTITCKTSQDVNTAVAWYQQKPGKAPKLLLYWASTRHTGIPARFSGSGSGTEFTLTISSLQSEDFAVYYCQQHYNTPLTFGGGTKLEIK
notes: Purified humanized Fab
For the molecule B6, in the test with His-tagged PD-L1 protein [1], binding was characterised by a dissociation constant (Kd) of 0.16 nM, the koff worked out at 0.00011 s⁻¹ and the kon turned out to be 680000 M⁻¹ s⁻¹.

B7: AS01807 (humanized Fab) (Fab, V domains shown)
VH: QVQLVQSGSELKKPGASVKVSCKASGYTFTSYSINWVRQAPGKGLEWMGYFYVGNGYTDYNEKFKGRVTITRDTSASTAYMELSSLRSEDTAVYYCARGGLPYYFDYWGQGTLVTVSS
VL: DIQMTQSPSSVSASVGDRVTITCKTSQDVNTAVAWYQQKPDQSPKLLIKWASTRHTGVPSRFSGSGSGTDFTLTISSLQPEDFATYYCQQHYNTPLTFGGGTKLEIK
notes: Purified humanized Fab
In the test with His-tagged PD-L1 protein [1], B7 returned a Kd of 1.4 nM, a koff of 0.00035 s⁻¹ and a kon of 260000 M⁻¹ s⁻¹.

B8: AS01817 (humanized Fab) (Fab, V domains shown)
VH: EVQLVQSGAEVKKPGESLKISCKGSGYSFTSYSINWVRQAPGKGLEWMGYFYVGNGYTDYNEKFKGRVTITRDTSASTAYMELSSLRSEDTAVYYCARGGLPYYFDYWGQGTLVTVSS
VL: DIQLTQSPSFLSASVGDRVTITCKTSQDVNTAVAWYQQKPGQPPKLLIYWASTRHTGVPSRFSGSGSGTDFTLTISSLQPEDFATYYCQQHYNTPLTFGGGTKLEIK
notes: Purified humanized Fab
In the test with His-tagged PD-L1 protein [1], B8 had a Kd of 0.93 nM, a koff of 0.00032 s⁻¹ and a kon of 340000 M⁻¹ s⁻¹.

B9: AS01790 (humanized Fab) (Fab, V domains shown)
VH: EVQLVQSGAEVKKPGESLKISCKGSGYSFTSYSINWVRQMPGKGLEWMGYFYVGNGYTDYNEKFKGRVTMTRNTSISTAYMELSSLRSEDTAVYYCARGGLPYYFDYWGQGTLVTVSS
VL: DIQMTQSPSTLSASVGDRVTITCKTSQDVNTAVAWYQQKPGKAPKLLIYWASTRHTGVPSRFSGSGSGTEFTLTISSLQPEDFATYYCQQHYNTPLTFGGGTKLEIK
notes: Purified humanized Fab derived from PDL1#10 (pFASEBA vector, E. coli)
Consider B9, for which, in the test with His-tagged PD-L1 protein [1], binding was put at a Kd of 0.35 nM, the koff amounted to 0.00017 s⁻¹ and the kon was determined as 500000 M⁻¹ s⁻¹.

B10: AS01979 (humanized Fab) (Fab, V domains shown)
VH: EVQLVQSGAEVKKPGESLKISCKGSGYSFTSYSINWVRQAPGKGLEWMGYFYVGNGYTDYNEKFKGRVTMTRNTSISTAYMELSSLRSEDTAVYYCARGGLPYYFDYWGQGTLVTVSS
VL: DIQMTQSPSSVSASVGDRVTITCKTSQDVNTAVAWYQQKPGQPPKLLIYWASTRHTGVPDRFSGSGSGTDFTLTISSLQAEDVAVYYCQQHYNTPLTFGGGTKLEIK
notes: Purified humanized Fab
With B10, in the test with His-tagged PD-L1 protein [1], the Kd was found to be 0.4 nM, the koff was determined as 0.00019 s⁻¹ and the on-rate (kon) stood at 470000 M⁻¹ s⁻¹.

B11: AS02013 (humanized full-length IgG) (antibody, V domains shown)
VH: EVQLVQSGAEVKKPGESLKISCKGSGYSFTSYSINWVRQAPGKGLEWMGYFYVGNGYTDYNEKFKGRVTMTRNTSISTAYMELSSLRSEDTAVYYCARGGLPYYFDYWGQGTLVTVSS
VL: DIQLTQSPSSLSASVGDRVTITCKTSQDVNTAVAWYQQKPGQAPRLLIYWASTRHTGVPSRFSGSGSGTDFTLTISSLQPEDFATYYCQQHYNTPLTFGGGTKLEIKR
notes: as for B3
In the test with His-tagged PD-L1 protein [2], B11 had a Kd of 0.751 nM, a koff of 0.000276 s⁻¹ and a kon of 367000 M⁻¹ s⁻¹.

B12: AS01978 (humanized Fab) (Fab, V domains shown)
VH: EVQLVQSGAEVKKPGESLKISCKGSGYSFTSYSINWVRQAPGKGLEWMGYFYVGNGYTDYNEKFKGRVTITTDESTSTAYMELSSLRSEDTAVYYCARGGLPYYFDYWGQGTLVTVSS
VL: DIQLTQSPSSLSASVGDRVTITCKTSQDVNTAVAWYQQKPDQSPKLLIKWASTRHTGVPSRFSGSGSGTDFTLTISSLQPEDFATYYCQQHYNTPLTFGGGTKLEIK
notes: Purified humanized Fab
As to B12, in the test with His-tagged PD-L1 protein [1], the Kd was determined as 1.6 nM, the koff stood at 0.00045 s⁻¹ and the kon is 290000 M⁻¹ s⁻¹.

B13: AS01995 (humanized Fab) (Fab, V domains shown)
VH: EVQLVQSGAEVKKPGESLKISCKGSGYSFTSYSINWVRQAPGKGLEWMGYFYVGNGYTDYNEKFKGRVTMTRNTSISTAYMELSSLRSEDTAVYYCARGGLPYYFDYWGQGTLVTVSS
VL: DIQMTQSPSSVSASVGDRVTITCKTSQDVNTAVAWYQQKPGKAPKLLLYWASTRHTGVPSRFSGSGSGTDFTLTISSLQPEDVATYYCQQHYNTPLTFGGGTKLEIK
notes: Purified humanized Fab
For the molecule B13, in the test with His-tagged PD-L1 protein [1], the affinity, expressed as Kd, was 0.37 nM; the koff amounted to 0.00017 s⁻¹; the kon was 450000 M⁻¹ s⁻¹.

B14: murine-human chimeric Fab (from mAb PDL1#10) (Fab, V domains shown)
VH: EVQLQQSGAELVRPGSSVKMSCKTSGYTFTSYSINWVKQRPGQGLEWIAYFYVGNGYTDYNEKFKGKATLTSDTSSSTAYMQLSSLTSEDSAIYFCARGGLPYYFDYWGQGTTLTVSS
VL: DIVMTQSHKFMSTSVGDRVSITCKTSQDVNTAVAWYQQKPGHSPKLLFYWASTRHTGVPDRFTGGGSGTDYTLTISSVQAEDLALYYCQQHYNTPLTFGAGTRLELKR
As for B14, in the test with His-tagged PD-L1 protein [1], the affinity, expressed as Kd, was 0.29 nM; the koff was found to be 0.00021 s⁻¹; the kon was 730000 M⁻¹ s⁻¹.

B15: AS01824 (humanized Fab) (Fab, V domains shown)
VH: QVQLVQSGSELKKPGASVKVSCKASGYTFTSYSINWVRQAPGKGLEWVAYFYVGNGYTDYNEKFKGRVTITADESTSTAYMELSSLRSEDTAVYYCARGGLPYYFDYWGQGTLVTVSS
VL: EIVMTQSPATLSVSPGERATLSCKTSQDVNTAVAWYLQKPGQSPQLLIYWASTRHTGVPSRFSGSGSGTDYTLTISSLQPEDFATYYCQQHYNTPLTFGGGTKLEIK
notes: Purified humanized Fab
In the test with His-tagged PD-L1 protein [1], B15 gave a Kd of 0.87 nM, a koff of 0.00054 s⁻¹ and an on-rate (kon) of 620000 M⁻¹ s⁻¹.

B16: AS01814 (humanized full-length IgG) (antibody, V domains shown)
VH: QVQLVQSGSELKKPGASVKVSCKASGYTFTSYSINWVRQAPGKGLEWVAYFYVGNGYTDYNEKFKGRVTITADESTSTAYMELSSLRSEDTAVYYCARGGLPYYFDYWGQGTLVTVSS
VL: DIQMTQSPSTLSASVGDRVTITCKTSQDVNTAVAWYQQKPGKAPKLLLYWASTRHTGIPARFSGSGSGTEFTLTISSLQSEDFAVYYCQQHYNTPLTFGGGTKLEIKR
notes: as for B3
In the test with His-tagged PD-L1 protein [2], B16 returned a Kd of 0.461 nM, a koff of 0.000173 s⁻¹ and a kon of 376000 M⁻¹ s⁻¹.

As a reminder, the Kd is the constant that tells how readily two partners part at equilibrium. High values mean lower affinity, low ones higher affinity. The term koff denotes a measure of how fast the partners let go of each other. Broadly, the kon is a measure of how fast the partners come together. Higher therefore signals fast association.

Source of the values: patent US20200190197A1 (REMD BIOTHERAPEUTICS, published 2020).
